Test results reported in patent US20210122810A1 (Janssen / Centocor, published 2021).

Tests used:
[1] = target: T1, Tau peptide encompassing residues 299-318 (human); experiment: isothermal titration calorimetry (ratio of the KD values against CBTAU-27.1)
T1 construct: also called Tau protein (peptide)
T1 peptide: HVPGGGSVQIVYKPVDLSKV

[2] = target: T1, Tau peptide encompassing residues …; experiment: isothermal titration calorimetry, peptide in cell titrated with IgG, PBS pH 7.4, one set of sites model
Experimental: Affinities of the binding molecules of the present invention were determined using a Microcal Auto-iTC200 isothermal titration calorimeter (Malvern). Tau and tau antibodies were dialysed to PBS, pH 7.4 to ensure perfect buffer matching conditions. […] Data was fitted according to a one set of sites model using Microcal PEAQ-ITC Analysis Software (Malvern).

B1: antibody of the present invention (antibody, V domains shown)
VH: QVQLVESGPEMRKPGESLKISCKTSGYIFSDYWTAWVRQLPGKGLQWMGIIYSGDSDTRYHPSVQGHVTMSTDSSLTTAYLQWSSLKASDTGIYYCARLDARVDAGWQLDSWGQGTLVTVSS
VL: DIQLTQSPDSLAVSLGERATINCKSSQSVFYRDNNKNYLAWYQHKSGQPPKLLFFWASSRESGVSDRFSGSGSGTDFTLTIDNLQAEDVALYYCQHYFNIPHNFGQGTKLEIK
notes: also called antibody according to the present invention
For B1, the “fold improvement in affinity relative to CBTAU-27.1” value [1] was 50 fold and the Kd [2] was 12.8 nM.
